# Test results: US9187525B2, “Methods of treating ophthalmic diseases using NPR-B agonists” (Shire Orphan Therapies GmbH, dated 2015)
# Numbered stars: 1 amine (or outer) side, 2 acyl side, 3 side chain; on linkers, the order of the positions; unused ones are H or OH. Square brackets hold non-standard residues; d marks the D form. Ends that are not written are not given here. * marks the point of attachment. Tap(2Me) = (2S,4R)-4-(dimethylamino)pyrrolidine-2-carboxylic acid, CN(C)[C@@H]1C[C@@H](C(=O)[*:2])N([*:1])C1; Ebe = (R)-2-amino-3-(methylsulfanyl)propanoic acid, CSC[C@H](N[*:1])C(=O)[*:2]; 6059 = 3-(Octane-1-sulfinyl)-propionic acid, CCCCCCCCS(=O)CCC(=O)*; 6072‑OH = rac-7-hydroxy-dodecanoic acid, CCCCCC(O)CCCCCC(=O)*; Pro(trans-4-NH2) = O=C([C@@H]1C[C@@H](N[*:3])CN1[*:1])[*:2]; 6071‑OH = rac-6-hydroxy-decanoic acid, CCCCC(O)CCCCC(=O)*; 6057 = 3-Octylsulfanyl-propionic acid, CCCCCCCCSCCC(=O)*; 6058 = 7-Butylsulfanyl-heptanoic acid, CCCCSCCCCCCC(=O)*; Sni = (S)-nipecotic acid, O=C([C@H]1CCCN([*:1])C1)[*:2]; 6056 = (2S)-2-octylcyclopropanecarboxylic acid; Hyp = O=C(O)[C@@H]1C[C@@H](O)CN1; NMeF = CN[C@@H](Cc1ccccc1)C(=O)O; 2Pal = N[C@@H](Cc1ccccn1)C(=O)O; 4Pal = N[C@@H](Cc1ccncc1)C(=O)O; NMeL = CN[C@@H](CC(C)C)C(=O)O; Lauroyl = CCCCCCCCCCCC(=O)*; Decanoyl = CCCCCCCCCC(=O)*; 3Amb = NCc1cccc(C(=O)O)c1; Octanoyl = CCCCCCCC(=O)*; FrL = not defined here; Hexanoyl = CCCCCC(=O)*; Oct = not defined here
# T1: natriuretic peptide receptor-B (human)
# T1 chain: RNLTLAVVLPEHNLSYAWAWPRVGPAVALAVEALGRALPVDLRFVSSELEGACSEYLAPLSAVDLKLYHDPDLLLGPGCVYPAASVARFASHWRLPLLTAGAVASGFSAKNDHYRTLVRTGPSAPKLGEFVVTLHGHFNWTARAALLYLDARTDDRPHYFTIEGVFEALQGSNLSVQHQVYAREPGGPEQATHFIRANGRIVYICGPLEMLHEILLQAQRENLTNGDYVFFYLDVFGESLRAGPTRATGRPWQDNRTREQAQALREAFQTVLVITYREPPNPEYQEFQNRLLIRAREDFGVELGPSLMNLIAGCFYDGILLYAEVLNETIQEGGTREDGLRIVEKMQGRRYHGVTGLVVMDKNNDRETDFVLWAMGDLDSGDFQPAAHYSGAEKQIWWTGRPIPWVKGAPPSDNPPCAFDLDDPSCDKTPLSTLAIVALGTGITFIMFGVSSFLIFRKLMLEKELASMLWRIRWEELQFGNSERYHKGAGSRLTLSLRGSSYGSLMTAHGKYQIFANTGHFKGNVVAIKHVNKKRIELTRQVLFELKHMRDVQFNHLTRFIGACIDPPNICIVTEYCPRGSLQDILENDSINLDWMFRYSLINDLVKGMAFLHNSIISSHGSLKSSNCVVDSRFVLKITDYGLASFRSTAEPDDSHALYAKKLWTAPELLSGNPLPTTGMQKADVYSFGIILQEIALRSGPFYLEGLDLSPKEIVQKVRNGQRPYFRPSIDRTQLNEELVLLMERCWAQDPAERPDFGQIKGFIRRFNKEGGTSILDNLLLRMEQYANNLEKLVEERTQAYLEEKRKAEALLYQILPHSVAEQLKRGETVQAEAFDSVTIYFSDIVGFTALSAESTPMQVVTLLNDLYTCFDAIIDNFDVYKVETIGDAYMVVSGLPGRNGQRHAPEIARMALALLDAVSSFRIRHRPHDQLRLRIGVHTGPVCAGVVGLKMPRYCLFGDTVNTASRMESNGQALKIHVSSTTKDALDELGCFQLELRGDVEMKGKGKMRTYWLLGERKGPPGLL
# B1: JAL-1242 (peptide)
# peptide: 6058-FRL[Hyp][NMeL]DRI-NH2
# modifications: not fully specified (some residues); printed as 6058-Phe-arg-Leu-Hyp-Nml-Asp-Arg-Ile-NH2
# B2: JAL-1268 (peptide)
# peptide: Octanoyl-A[NMeF]KL[Hyp][NMeL]DRI-NH2
# modifications: not fully specified (some residues); printed as Occ-ala-Nmf-lys-Leu-Hyp-Nml-Asp-Arg-Ile-
# B3: JAL-0631 (peptide)
# peptide: Hexanoyl-G[dA]FGLKLDRI-NH2
# B4: JAL-1253 (peptide)
# peptide: Octanoyl-[Sni]FSL[Hyp][NMeL]DRI-NH2
# modifications: not fully specified (some residues); printed as Occ-Sni-Phe-ser-Leu-Hyp-Nml-Asp-Arg-Ile-NH2
# B5: JAL-1245 (peptide)
# peptide: Lauroyl-FLL[Hyp][NMeL]DRI-NH2
# modifications: not fully specified (some residues); printed as 832-Phe-leu-Leu-Hyp-Nml-Asp-Arg-Ile-NH2
# B6: JAL-1255 (peptide)
# peptide: Octanoyl-[Sni]FRL[Hyp][NMeL]DRI-NH2
# modifications: not fully specified (some residues); printed as Occ-Sni-Phe-arg-Leu-Hyp-Nml-Asp-Arg-Ile-NH2
# B7: JAL-1254 (peptide)
# peptide: Octanoyl-[Sni]FKL[Hyp][NMeL]DRI-NH2
# modifications: not fully specified (some residues); printed as Occ-Sni-Phe-lys-Leu-Hyp-Nml-Asp-Arg-Ile-NH2
# B8: JAL-1240 (peptide)
# peptide: 6056-FRL[Hyp][NMeL]DRI-NH2
# modifications: not fully specified (some residues); printed as 6056-Phe-arg-Leu-Hyp-Nml-Asp-Arg-Ile-NH2
# B9: JAL-1256 (peptide)
# peptide: Octanoyl-[Sni]XLL[Hyp][NMeL]DRI-NH2
# modifications: not fully specified (some residues); printed as Occ-Sni-Mpa-leu-Leu-Hyp-Nml-Asp-Arg-Ile-
# B10: JAL-1250 (peptide)
# peptide: Octanoyl-AFRL[Pro(trans-4-NH2)]LDRI-NH2
# modifications: not fully specified (some residues); printed as Occ-ala-Phe-arg-Leu-Tap-Leu-Asp-Arg-Ile-NH2
# B11: JAL-1266 (peptide)
# peptide: Octanoyl-[Sni][2Pal]LL[Hyp][NMeL]DRI-NH2
# modifications: not fully specified (some residues); printed as Occ-Sni-Opa-leu-Leu-Hyp-Nml-Asp-Arg-Ile-
# B12: JAL-1264 (peptide)
# peptide: Octanoyl-AFLL[Tap(2Me)]LDRI-NH2
# modifications: not fully specified (some residues); printed as Occ-ala-Phe-leu-Leu-Tap(2Me)-Leu-Asp-Arg-Ile-NH2
# B13: JAL-1261 (peptide)
# peptide: Decanoyl-FRL[Hyp][NMeL]DRI-NH2
# modifications: not fully specified (some residues); printed as 5587-Phe-arg-Leu-Hyp-Nml-Asp-Arg-Ile-NH2
# B14: JAL-1259 (peptide)
# peptide: {6071‑OH}-FRL[Hyp][NMeL]DRI-NH2
# modifications: not fully specified (some residues); printed as (6071-OH)-Phe-arg-Leu-Hyp-Nml-Asp-Arg-Ile-NH2
# B15: JAL-1241 (peptide)
# peptide: 6057-FRL[Hyp][NMeL]DRI-NH2
# modifications: not fully specified (some residues); printed as 6057-Phe-arg-Leu-Hyp-Nml-Asp-Arg-Ile-NH2
# B16: JAL-1246 (peptide)
# peptide: Lauroyl-FRL[Hyp]LDRI-NH2
# modifications: not fully specified (some residues); printed as 832-Phe-arg-Leu-Hyp-Leu-Asp-Arg-Ile-NH2
# B17: JAL-1265 (peptide)
# peptide: Octanoyl-[Sni]FXL[Hyp][NMeL]DRI-NH2
# modifications: not fully specified (some residues); printed as Occ-Sni-Phe-orn-Leu-Hyp-Nml-Asp-Arg-Ile-NH2
# B18: JAL-0543 (peptide)
# peptide: Hexanoyl-[3Amb]FGLKLDRIS[Ebe]-NH2
# SMILES: CCCCCC(=O)NCc1cccc(C(=O)N[C@@H](Cc2ccccc2)C(=O)NCC(=O)N[C@@H](CC(C)C)C(=O)N[C@@H](CCCCN)C(=O)N[C@@H](CC(C)C)C(=O)N[C@@H](CC(=O)O)C(=O)N[C@@H](CCCNC(=N)N)C(=O)N[C@H](C(=O)N[C@@H](CO)C(=O)N[C@@H](CSC)C(N)=O)[C@@H](C)CC)c1
# B19: JAL-1251 (peptide)
# peptide: Octanoyl-AFLL[Pro(trans-4-NH2)]DRI-NH2
# modifications: not fully specified (some residues); printed as Occ-ala-Phe-leu-Leu-Tap-Asp-Arg-Ile-NH2
# B20: JAL-1257 (peptide)
# peptide: Octanoyl-[Sni][4Pal]LL[Hyp][NMeL]DRI-NH2
# modifications: not fully specified (some residues); printed as Occ-Sni-Ppa-leu-Leu-Hyp-Nml-Asp-Arg-Ile-NH2
# B21: JAL-1249 (peptide)
# peptide: Octanoyl-AFGL[Pro(trans-4-NH2)]LDRI-NH2
# modifications: not fully specified (some residues); printed as Occ-ala-Phe-Gly-Leu-Tap-Leu-Asp-Arg-Ile-NH2
# B22: JAL-1248 (peptide)
# peptide: [Oct][Sni][FrL][Hyp]LDRI-NH2
# modifications: reading uncertain; also: printed as Oct-Sni-FrL-Hyp-Leu-Asp-Arg-Ile-NH2
# B23: JAL-1262 (peptide)
# peptide: Octanoyl-AFGL[Tap(2Me)]LDRI-NH2
# modifications: not fully specified (some residues); printed as Occ-ala-Phe-Gly-Leu-Tap(2Me)-Leu-Asp-Arg-Ile-
# B24: JAL-1260 (peptide)
# peptide: {6072‑OH}-FRL[Hyp][NMeL]DRI-NH2
# modifications: not fully specified (some residues); printed as (6072-OH)-Phe-arg-Leu-Hyp-Nml-Asp-Arg-Ile-NH2
# B25: JAL-1243 (peptide)
# peptide: 6059-FRL[Hyp][NMeL]DRI-NH2
# modifications: not fully specified (some residues); printed as 6059-Phe-arg-Leu-Hyp-Nml-Asp-Arg-Ile-NH2
# B26: JAL-1252 (peptide)
# peptide: Octanoyl-AFSL[Hyp][NMeL]DRI-NH2
# modifications: not fully specified (some residues); printed as Occ-ala-Phe-ser-Leu-Hyp-Nml-Asp-Arg-Ile-NH2
# B27: JAL-1263 (peptide)
# peptide: Octanoyl-AFRL[Tap(2Me)]LDRI-NH2
# modifications: not fully specified (some residues); printed as Occ-ala-Phe-arg-Leu-Tap(2Me)-Leu-Asp-Arg-Ile-NH2
# B28: JAL-1244 (peptide)
# peptide: Lauroyl-[NMeF]RL[Hyp][NMeL]DRI-NH2
# modifications: not fully specified (some residues); printed as 832-Nmf-arg-Leu-Hyp-Nml-Asp-Arg-Ile-NH2
# Target: T1, natriuretic peptide receptor-B
# Assay: cell-based or functional assay
row,"EC50 group, cGMP in GTM-3 cells [µM]",Binder
1,≤ 5,B1
2,≤ 5,B2
3,≤ 15,B3
4,≤ 5,B4
5,≤ 5,B5
6,≤ 1,B6
7,≤ 1,B7
8,≤ 5,B8
9,≤ 15,B9
10,≤ 1,B10
11,≤ 5,B11
12,≤ 5,B12
13,≤ 15,B13
14,≤ 15,B14
15,≤ 5,B15
16,≤ 15,B16
17,≤ 1,B17
18,≤ 15,B18
19,≤ 1,B19
20,≤ 15,B20
21,≤ 1,B21
22,≤ 5,B22
23,≤ 5,B23
24,≤ 5,B24
25,≤ 5,B25
26,≤ 1,B26
27,≤ 5,B27
28,≤ 15,B28
